Laboratory results as given in patent publication US20240360206A1 (ALZPATH, published 2024).
Positions count from the first letter of the chain named. Each block holds one binder with its values, some of them ahead of it.

What was measured:
Peptide C = target: T1, Peptide C (none); test: indirect ELISA, peptide coated on the plate, HRP goat anti-rabbit antibody, TMB, read at 650 nm; axes without titles
T1 construct: only Peptide C; also called WZN-1C; T217
T1 peptide: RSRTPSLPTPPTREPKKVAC
Description: (§1) Antibodies were generated and purified. The antibodies were assayed using a standard indirect ELISA protocol. Briefly, peptide antigens corresponding to SEQ ID NOs: 74-81 were diluted to 1 μg/ml in PBS and plated onto a Greiner Bio One Microlon 96 well plate. Peptide antigens were produced by the manufacturer Abcam. WZN-1A and WZN-1B served as targets. WZN-1C, WZN-1D, WZN-1E, WZN-1F, WZN-1G, and WZN-1H served as negative controls. In the peptide antigen sequences, a phosphorylated residue is indicated by (pT) for phosphorylated threonine or (pS) for phosphorylated serine. After blocking with 1% BSA in PBS pH 7.4, antibodies were serially diluted 1 to 4 with an initial concentration of 1 μg/ml. After incubation, unbound antibodies were washed off with 1×TBST and HRP labeled goat anti-rabbit secondary antibody was applied according to the manufacturer's instructions. Subsequently, unbound secondary antibody was washed off with 1×TBST and 3,3′5,5′-tetramethylbenzidine (TMB) was applied for 5 minutes at room temperature and plates were read at 650 nm. Data is seen in FIG. 3.

full length Tau (Tau441) = target: T2, full length Tau (Tau441) (UniProt P10636-8 1-441); test: indirect ELISA on Tau441, antibody titrated
T2 construct: also called synthetic full length Tau

Peptide D = target: T3, Peptide D (phosphothreonine at position 4 of the peptide (pT212 by the filing's name)); test: indirect ELISA, peptide coated on the plate, HRP goat anti-rabbit antibody, TMB, read at 650 nm; axes without titles
T3 construct: also called WZN-1D; pT212
T3 peptide: RSRTPSLPTPPTREPKC
Description: as §1

Peptide B = target: T4, Peptide B (phosphothreonine at position 6 of the peptide (pT217 by the filing's name)); test: as above
T4 construct: also called WZN-1B; pT217b
T4 peptide: TPSLPTPPTREPKKVAC
Description: as §1

Peptide A = target: T5, Peptide A (phosphothreonine at position 9 of the peptide (pT217 by the filing's name)); test: as above
T5 construct: also called WZN-1A; pT217a
T5 peptide: RSRTPSLPTPPTREPKC
Description: as §1

T2 sequence (P10636 other isoform, or with tags, fused parts or gaps limits assumed): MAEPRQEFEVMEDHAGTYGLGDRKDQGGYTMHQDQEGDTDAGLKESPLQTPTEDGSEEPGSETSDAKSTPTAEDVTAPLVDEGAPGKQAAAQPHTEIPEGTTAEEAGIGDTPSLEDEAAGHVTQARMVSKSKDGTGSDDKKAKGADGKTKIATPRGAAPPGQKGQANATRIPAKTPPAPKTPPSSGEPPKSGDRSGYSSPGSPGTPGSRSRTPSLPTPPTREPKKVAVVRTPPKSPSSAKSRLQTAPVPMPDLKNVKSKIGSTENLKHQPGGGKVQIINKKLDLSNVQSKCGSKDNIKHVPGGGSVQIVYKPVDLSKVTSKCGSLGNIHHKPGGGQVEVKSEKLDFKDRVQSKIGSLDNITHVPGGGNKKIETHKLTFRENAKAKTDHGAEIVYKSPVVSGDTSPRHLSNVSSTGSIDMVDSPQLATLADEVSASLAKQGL

B1: Antibody 1 (antibody, V domains shown)
VH: QSLEESGGRLVTPGTPLTLTCTVSGFSLSSQKVGWVRQAPGKGLEWIGIINNYGSTYYASWAKGRFTISKTSTTVDLRITSLTAEDTATYFCARDPDGSIVFDIWGPGTLVTVSL
VL: AQVLTQTASPVSAAVGGTVTINCQSSQSVVYNNRLSWFQQKPGQPPKLLIYGASTLASGVPSRFKGSGSGTQFTLTISDVQCDDAATYYCLGSYDCSSGDCHAFGGGTEVVVKG
- binding result (Peptide C): no binding

B2: Antibody 4 (antibody, V domains shown)
VH: B1 VH with S29N, S30N, Q31Y, N52Y, G54S, S55Q, R78K, I79L, L82P, A84T
VL: AQVLTQTASPVSAAVGSTVTINCQSSQSVYSNKRLAWFQLKPGQPPKLLIYGASTLASGVPSRFKGSGSGTQFTLTISDVQCDDAATYYCAGGYDCSTGDCWTFGGGTEVVVTG
- binding result (Peptide C): no binding

B3: Antibody 6 (antibody, V domains shown)
VH: QSLEESGGRLVTPGTPLTLTCTVSGIDLSTHAMTWVRQAPGKGLEWIGVINPSGSAYYATWVNGRFTISKTSTTVDLKITSPTTGDTAKYFCARDYITAGDYYMDAFDPWGPGTLVTVSS
VL: DIVMTQTPASVSAAVGGTVTIKCQASQSISNQLSWYQQKSGQPPKLLIYRASTLASGVPSRFKGSGSGTEFTLTISDLECADAATYYCQQGYNRDNVDNLFGGGTEVVVKG
notes: Rabbit monoclonal antibody; also called 71H1L2
- binding result (Peptide C): no binding
- binding result (full length Tau (Tau441)): no binding (tested: 10^4 ng/mL)

B4: PT3 (antibody, V domains shown)
VH: EVKLVESGGDLVKPGGSLKLSCAASGFTFSSYAMSWVRQNPEKRLEWVASISKGGNTYYPNSVKGRFTISRDNARNILYLQMSSLRSEDTALYYCARGWGDYGWFAYWGQVTLVTVSA
VL: DIKMTQSPSSMYASLGERVTITCKASQDINRYLNWFQQKPGKSPKTLIYRANRLLDGVPSRFSGSGSGQDYSLTISSLDYEDMGIYYCLQYDEFPLTFGDGTKLELK
- EC50 (read off the curve) (full length Tau (Tau441)): ~0.2 µg/mL

B5: Antibody 3 (antibody, V domains shown)
VH: QSVEESGGRLVTPGTPLTLTCTVSGFSLSSYAMIWVRQAPGKGLEWIGFISRSGITYYASWAKGRFTISKTSTTVDLKMTSLTTEDTATYFCAREFGAVGSDYYRDAFNLWGPGTLVTVSS
VL: DIVMTQTPSSVSAAVGGTVTINCQASQNIYSNLAWYQQKPGQRPRLLIYGASNLASGVPSRFKGSRSGTEFTLTISDLECADAATYYCQGYDYSTAGAYPFGGGTAVVVKG
- binding result (Peptide C): no binding
- binding result (Peptide D): no binding
- binding result (Peptide B): no binding
- binding result (Peptide A): no binding

The next lines start with the values.

- binding result (Peptide C): no binding
- binding result (full length Tau (Tau441)): no binding (tested: 10^4 ng/mL)
B6: Antibody 5 (antibody, V domains shown)
VH: B5 VH with R9G, T15G, P16T, S30N, I34S, M79I, L82P, T89A, F108L, N109R
VL: DIVMTQTPSSVSAAVGGTVTIKCQASQSIGSNLAWYQQKPGQPPKLLIYGASTLESGVPSRFKGSGSGTEYTLTISDLECADAATYYCQSYYEGSDIGYAFGGGTEVVVEG
notes: Rabbit monoclonal antibody; also called 62H10L7

- binding result (Peptide C): no binding
- binding result (full length Tau (Tau441)): no binding (tested: 10^4 ng/mL)
B7: Antibody 2 (antibody, V domains shown)
VH: B5 VH
VL: DIVMTQTPASVEAAVGGTVTINCQASESINSWLSWYQQKPGQPPNLLIYRASTLASGVPSRFSGGGSGTEYTLTISDLECADAVTYYCQSYYEEDGIGYAFGGGTEVVVEG
notes: Rabbit monoclonal antibody; also called 30H10L2
